Consider 4 substances from IntAct's records for PubMed 35266954.

One experiment has as its target trim1_human MID2 (UniProt Q9UJV3).
The target of another experiment is 1433t_human YWHAQ (UniProt P27348).
Chain of UniProt P27348 (P27348 whole entry): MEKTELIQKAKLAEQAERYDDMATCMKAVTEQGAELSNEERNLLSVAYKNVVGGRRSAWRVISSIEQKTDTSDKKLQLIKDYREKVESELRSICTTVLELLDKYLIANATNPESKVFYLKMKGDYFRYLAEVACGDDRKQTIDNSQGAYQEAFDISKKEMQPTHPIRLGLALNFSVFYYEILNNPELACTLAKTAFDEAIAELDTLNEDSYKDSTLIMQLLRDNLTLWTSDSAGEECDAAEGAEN

Chain of UniProt Q9UJV3 (Q9UJV3 whole entry): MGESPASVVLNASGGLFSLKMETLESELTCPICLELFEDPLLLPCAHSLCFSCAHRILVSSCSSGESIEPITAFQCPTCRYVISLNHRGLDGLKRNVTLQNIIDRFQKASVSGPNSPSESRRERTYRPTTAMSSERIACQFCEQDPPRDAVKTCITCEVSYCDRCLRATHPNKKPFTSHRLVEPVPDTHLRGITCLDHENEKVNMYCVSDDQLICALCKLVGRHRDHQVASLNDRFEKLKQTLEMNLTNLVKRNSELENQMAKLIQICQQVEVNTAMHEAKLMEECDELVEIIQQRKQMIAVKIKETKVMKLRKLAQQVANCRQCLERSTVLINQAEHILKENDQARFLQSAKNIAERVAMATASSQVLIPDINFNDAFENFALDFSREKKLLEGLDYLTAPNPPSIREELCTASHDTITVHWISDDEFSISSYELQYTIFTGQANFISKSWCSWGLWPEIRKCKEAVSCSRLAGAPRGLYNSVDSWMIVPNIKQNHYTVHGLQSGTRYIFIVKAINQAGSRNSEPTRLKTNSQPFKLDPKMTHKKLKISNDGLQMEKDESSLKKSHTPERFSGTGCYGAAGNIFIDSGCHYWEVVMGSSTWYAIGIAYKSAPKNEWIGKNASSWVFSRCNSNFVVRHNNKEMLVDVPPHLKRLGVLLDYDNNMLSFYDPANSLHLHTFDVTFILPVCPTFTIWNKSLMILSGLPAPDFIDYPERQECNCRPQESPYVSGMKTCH

In the case of “Leucine-rich repeat serine/threonine-protein kinase 2 (Homo sapiens), Q5S007 G2019S”, the “effect of a mutation on the interaction” value with trim1_human MID2 is listed as “with no effect”.
As to “Leucine-rich repeat serine/threonine-protein kinase 2 (Homo sapiens), Q5S007 R1441C”, the “effect of a mutation on the interaction” value in the experiment with 1433t_human YWHAQ is on record as “disrupting interaction strength”.
As for “Leucine-rich repeat serine/threonine-protein kinase 2 (Homo sapiens), Q5S007 S910A;S935A”, in the experiment with 1433t_human YWHAQ, the “effect of a mutation on the interaction” value is “disrupting interaction strength”.
“Leucine-rich repeat serine/threonine-protein kinase 2 (Homo sapiens), Q5S007 S910D;S935D”: in the experiment with 1433t_human YWHAQ, the “effect of a mutation on the interaction” value was “disrupting interaction strength”.
